Reference: patent US5232912

What follows are substances tested against bovine thrombin (bovine) (UniProt P00735).

Row | Fibrin Clot Inhibition | Substance
1 | 0.51 | Suc-Tyr-Glu-Azd-Ile-Pro-Glu-Glu-Ala-Cha-D-Glu-OH (peptide)
2 | 1.9 | Suc-Tyr-Glu-Pip-Ile-Pro-Glu-Glu-Ala-Cha-D-Glu-OH (peptide)
3 | 0.38 | Suc-Tyr-Glu-Pro-Ile-Azd-Glu-Glu-Ala-Cha-D-Glu-OH (peptide)
4 | 0.88 | Suc-Tyr-Glu-Pro-Ile-Pip-Glu-Glu-Ala-Cha-D-Glu-OH (peptide)
5 | 0.63 | Suc-Tyr-Glu-Pro-Ile-Tiq-Glu-Glu-Ala-Cha-D-Glu-OH (peptide)
6 | 0.82 | Suc-Tyr-Glu-Tiq-Ile-Pro-Glu-Glu-Ala-Cha-D-Glu-OH (peptide)
